From paper PMC9242090 (The Journal of Experimental Medicine, 2022)
Numbering of substitutions follows the chain as printed. No end group written: not given here.

T1: Peptide 29 (Pep29) (Plasmodium falciparum 3D7, also: biotin, position not given here)
T1 chain: NANPNANPNANPNAN

B1: CIS43_Var11 Fab (Fab, V domains shown)
VH: QRQLVQSGAEVKKPGASVKVSCKASGYTFTSYAIHWVRQAPGQRLEWMGWIKAGNGNTRYSQKFQDRVTITRDTSTTTAYMELSSLRSEDTAVYYCALLTVLTPDDAFDIWGQGTMVTVSS
VL: not shown
B2: CIS43_Var18 Fab (Fab, V domains shown)
VH: B1 VH with A97V
VL: not shown

Target: T1, Peptide 29 (Pep29)
Assay: BLI

Row | Binder | binding result
1 | B1 | binds
2 | B2 | binds
